The results in this text go back to the supplement of paper PMC10126150.

The data set has as its system ATP. Briefly: switch fluorescence ratio, 500 uM ATP over buffer (Cy3 cluster intensity, sum of 5 cycles each) (fold (ratio)); higher = stronger signal-on switching upon ATP binding; sequences stand for … in TCGTCGGCAGCGTCAGATGTGTATAAGAGACAGTTTTTTTTTTTTTTTTTTTTTTTTT…TC. As to conditions: aptamer strand: ATP DNA aptamer (quencher-CACCTGGGGGAGTATTGCGGAGGAAGG + anchor), 100 nM annealed; ATP concentration: 500 uM. The gist of the method: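 Exposure to 500 uM ATP lasted 15 min at 22 °C before imaging, and a selection-buffer image was taken beforehand, for Cy3-labelled switching-strand clusters on a modified Illumina MiSeq flow-cell annealed to 100 nM quencher-labelled ATP aptamer. Five buffer/ATP cycles were run with NaOH stripping and re-annealing between them. The fluorescence ratio per cluster is summed target-cycle over summed buffer-cycle Cy3 intensity, averaged per switch-domain sequence. Clusters outside 100-1000 RFU were excluded.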

± gives the standard deviation of the averaged measurements.

For GCTGGTATTG, the switch fluorescence ratio was 1 ± 0.031.
In the case of CGAGGGAGTT, the switch fluorescence ratio is 0.986 ± 0.044.
Regarding TTGACGTGCC, the switch fluorescence ratio was determined as 1.021 ± 0.0033.
The same measure for GGGTCTTTGG: 0.97 ± 0.023; for TATGATCTAG: 0.995 ± 0.014; for ACAGAATAGG: 1.018 ± 0.0027.
The same measure for CGGTTTGACA: 0.9954 ± 0.0092; for GTTAAGGATT: 1.03 ± 0.085.
As for GCGGAGTCGG, the switch fluorescence ratio stood at 0.996 ± 0.053.
Next, GCTTGTGACG: 1.02 ± 0.058; ATGCGGTAGA: 1.02 ± 0.042.
Next, TATTTTGTGT: 0.998 ± 0.036; AAGGGGGGCC: 1.01 ± 0.089.
Next, GAATCGGGGG: 0.979 ± 0.044; GCTTTTAGCC: 0.991 ± 0.043; AAGAACCCAG: 1.05 ± 0.025.
With GGGAGGTCGG, the switch fluorescence ratio came to 1.01 ± 0.025.
The same measure for GTGCTTCGGT: 0.948 ± 0.026; for GGTAGCCTGC: 1.02 ± 0.023.
Regarding TTGTCCCTGC, the switch fluorescence ratio is 1.016 ± 0.0054.
For TGATAATAGG, the switch fluorescence ratio stood at 0.989 ± 0.021.
With GGTGTATAGT, the switch fluorescence ratio came to 0.9908 ± 0.0079.
Regarding CGCGCAGGGG, the switch fluorescence ratio came out at 1.69 ± 0.076.
The same measure for ATTGAAGTGC: 1.01 ± 0.02; for GTGGCGGTG: 0.985 ± 0.014; for TTAATAGTGT: 1 ± 0.013.
Turning to GCAGTTTGGA, the switch fluorescence ratio turned out to be 0.989 ± 0.015.
Regarding AAAAGGTGAA, the switch fluorescence ratio came out at 1.04 ± 0.089.
Next, TCGCGTTTGC: 1.06 ± 0.054.
TTAAGAGGTA: the switch fluorescence ratio came out at 1.002 ± 0.0039.
Next, AGGGTCGACT: 1.033 ± 0.0095; ATACACGGCG: 1.045 ± 0.0087.
Next, GGGAGGCAGG: 1.07 ± 0.029; ATGAGAGCGG: 0.996 ± 0.096; TGGTGCAGGG: 0.984 ± 0.015.
The same measure for TATACATTCA: 1.07 ± 0.019.
For ATCCGCCGCT, the switch fluorescence ratio was 1.72 ± 0.089.
Next, GCGAGCCTCC: 1.3 ± 0.052; GTCAATTGAT: 0.9924 ± 0.0074; TTTGTATTAG: 1 ± 0.028.
The same measure for GGGAAAGGTA: 0.986 ± 0.011.
Turning to AAACGCTGCT, the switch fluorescence ratio came out at 1.02 ± 0.062.
Consider TTTGCTTGGG, for which the switch fluorescence ratio worked out at 1.02 ± 0.033.
The same measure for ACTGGATCAC: 1.099 ± 0.0035; for TGGCCGACTT: 1.02 ± 0.02; for TTTGTCAGAT: 0.98 ± 0.013.
The same measure for CCGGGTATTG: 1.027 ± 0.0036; for AGGGGGGCT: 1.01 ± 0.031.
Next, GGAGATATTA: 1.01 ± 0.026.
As to ATTCAGTTAT, the switch fluorescence ratio came to 0.997 ± 0.021.
The same measure for CAGTGGGGGA: 0.993 ± 0.022; for GCGGCGGCGT: 1.002 ± 0.0023.
The same measure for TGGTTGGTGC: 1.16 ± 0.17; for CCAAGGACAC: 1.1498 ± 0.001; for ACTCGGGGTG: 0.998 ± 0.025.
Next, TAATCAATAT: 1.013 ± 0.0017; GGGGGTGCAT: 0.9638 ± 0.0088.
With ATCTGATGGC, the switch fluorescence ratio is 0.957 ± 0.039.
The same measure for TGGTAAAACT: 1.06 ± 0.034; for CGGTTTTGCG: 0.985 ± 0.024; for TTATAAGGTT: 1.02 ± 0.023.
Next, TGGATCAAGT: 1.01 ± 0.06; ATGCAATGGA: 1 ± 0.064; ATAGGCGTCG: 0.967 ± 0.032.
The same measure for TTGATGCGTT: 1.01 ± 0.015; for CGCCATATTT: 1.03 ± 0.016.
GCAAAAATGC: the switch fluorescence ratio stood at 1.03 ± 0.031.
Next, GTTTATATGT: 1.01 ± 0.049; AGAGAGGGTG: 1.06 ± 0.048.
Turning to TCGTATGATA, the switch fluorescence ratio was found to be 0.968 ± 0.036.
Turning to GTTTCGGGGA, the switch fluorescence ratio was 1 ± 0.038.
The same measure for CTTATCGGGG: 1 ± 0.013; for GAAGATAGGT: 0.993 ± 0.03.
Next, TTGTCTGGGG: 0.985 ± 0.03; CATAATAATC: 0.98 ± 0.026.
Next, ACAGACTTGT: 1.01 ± 0.037; AATACTCACG: 1.5 ± 0.058; TTCTCCGGTT: 1.31 ± 0.29.
Turning to TCTAATTGGG, the switch fluorescence ratio was found to be 1.01 ± 0.037.
